Assay results reported in US20240350646A1, “METHODS AND COMPOSITIONS FOR DELIVERY TO AND ACROSS THE BLOOD BRAIN BARRIER” (NUtech Ventures, priority 2021, published 2024).

Tests used:
Test in all cases: Microscale thermophoresis (MST) binding
Settings in all cases: 0.1% beta-UDM buffer
human claudin-3 = biological target: T1, human claudin-3 (Homo sapiens, UniProt O15551)
T1 sequence (O15551 1-220): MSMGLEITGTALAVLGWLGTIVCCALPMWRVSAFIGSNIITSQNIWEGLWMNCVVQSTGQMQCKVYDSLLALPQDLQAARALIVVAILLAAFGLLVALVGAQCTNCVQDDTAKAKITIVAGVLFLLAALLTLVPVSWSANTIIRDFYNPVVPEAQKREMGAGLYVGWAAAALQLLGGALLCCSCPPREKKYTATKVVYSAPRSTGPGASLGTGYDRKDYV
Method: (§1) Human claudin-1 was expressed and purified as reported previously (Vecchio & Stroud, 2019, PNAS USA, 116:17817-24). MST measurements were performed using a Monolith instrument (NanoTemper Technologies). For experiments with human claudin-1, the assay buffer contained 10 mM Tris HCl, pH 8.0, 100 mM NaCl, 4% glycerol, and 0.04% n-Dodecyl-β-D-Maltopyranoside (β-DDM). NPs and peptides were labeled with AF647 prior to MST analysis as described above. For the binding experiments, the concentration of human claudin-1 was varied from 2.2-73,500 nM and the AF647-labeled C1C2-NP was fixed at 70 nM, while the AF647 labeled NPs and AF647 labeled C1C2 peptide were fixed at 1 and 0.3 μM, respectively. Binding of the AF647 labeled C1C2-NP to human claudin-3, -4, and -9 were tested using 0.4-14000 nM, 0.8-28000 nM, and 0.6-20000 nM, respectively; with the AF647 labeled C1C2-NP fixed at 70 nM. This assay buffer was similar, except β-DDM was replaced with 0.1% n-Undecyl-β-D-Maltopyranoside (beta-UDM). In order to check non-specific binding of β-DDM micelles to the AF647 labeled C1C2-NP, the concentration of beta-DDM was varied from 0.03-900 μM and the concentration of the AF647-labeled C1C2-NP was fixed at 1 μM. A similar experiment was performed wherein the concentration of beta-UDM was varied from 0.3-10,000 μM and the concentration of AF647-labeled control NP was fixed at 1 μM. The non-specific binding of human claudins 4 and 9 to the NP was examined by varying the concentrations of human claudins 4 and 9 from 0.7-20,100 nM and 0.8-31,100 nM, respectively. The human claudin sub-dilutions were mixed with the NPs or peptides and loaded in standard monolith NT.115 capillary tubes for measurement. All experiments were conducted at 23° C. using the nano-red channel of the Monolith instrument and the data were analyzed by using either Monolith analysis software or Graph Pad Prism, version 9 (Graph Pad Software, San Diego, California).

human claudin-4 = biological target: T2, human claudin-4 (Homo sapiens, UniProt O14493)
T2 sequence (O14493 1-209): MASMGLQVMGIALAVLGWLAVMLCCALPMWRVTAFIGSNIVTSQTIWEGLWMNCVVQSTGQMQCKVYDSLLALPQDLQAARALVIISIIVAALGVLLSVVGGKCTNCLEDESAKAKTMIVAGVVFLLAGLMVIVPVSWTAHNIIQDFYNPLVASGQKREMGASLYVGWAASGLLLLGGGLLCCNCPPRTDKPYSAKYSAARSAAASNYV
Method: as §1

human claudin-9 = biological target: T3, human claudin-9 (Homo sapiens, UniProt O95484)
T3 sequence (O95484 1-217): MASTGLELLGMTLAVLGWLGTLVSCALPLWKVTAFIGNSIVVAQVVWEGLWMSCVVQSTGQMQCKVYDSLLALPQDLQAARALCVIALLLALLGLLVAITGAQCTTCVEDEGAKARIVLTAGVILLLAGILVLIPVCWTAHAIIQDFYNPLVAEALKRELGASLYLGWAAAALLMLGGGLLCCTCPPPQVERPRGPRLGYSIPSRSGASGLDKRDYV
Method: as §1

Binding to human claudin 3 (in words) (human claudin-3; listed as AF647-C1C2-NP): does not show any binding
Binding to human claudin 3 (in words) (human claudin-3; listed as C1C2-NPs): undefined 95% confidence intervals
Binding to human claudin 4 (in words) (human claudin-4; listed as AF647-C1C2-NP): weak
Binding to human claudin 4 (in words) (human claudin-4; listed as C1C2-NPs): undefined 95% confidence intervals
Binding to human claudin 9 (in words) (human claudin-9; listed as AF647-C1C2-NP): weak
Binding to human claudin 9 (in words) (human claudin-9; listed as C1C2-NPs): the data did not fit
Substance: C1C2-NP: PEG diacid coated ultrasmall Gd NP conjugated with C1C2 peptide SSVSQSTGQIQSKVDSLLNLNSTQATR (SEQ ID NO: 6); claudin-1 targeted (Ac-SSVSQSTGQIQSKVDSLLNLNSTQATR-NH2; also: conjugated to PEG diacid coated ultrasmall Gd nanoparticle)
